Results published in paper PMC3135480 (Molecular Biology of the Cell, 2011).

Molecular target: T1, HA-tagged PXL-1 full-length (residues 1-413) (C. elegans, UniProt Q09476 1-413)
T1 sequence (looked up): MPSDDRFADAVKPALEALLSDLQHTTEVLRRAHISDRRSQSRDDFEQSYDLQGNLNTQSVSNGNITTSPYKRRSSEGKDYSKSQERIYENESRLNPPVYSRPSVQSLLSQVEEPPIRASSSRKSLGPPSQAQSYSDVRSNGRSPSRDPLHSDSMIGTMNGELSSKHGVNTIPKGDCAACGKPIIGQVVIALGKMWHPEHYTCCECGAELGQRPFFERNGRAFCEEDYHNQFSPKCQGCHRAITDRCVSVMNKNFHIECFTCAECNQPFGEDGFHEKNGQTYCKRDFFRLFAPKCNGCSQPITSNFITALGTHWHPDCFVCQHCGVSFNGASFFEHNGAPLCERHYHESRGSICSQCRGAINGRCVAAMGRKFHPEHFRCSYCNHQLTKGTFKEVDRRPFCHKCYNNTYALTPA
Test: pull-down

B1: MBP fusion of UNC-95 full-length (natural protein, C. elegans, UniProt Q9NEZ5 1-350, looked up)
chain: MTISPQPSHQQFESYQWTTESRSSQQRHGTGTPSQDGRLSAIPDPVERHVARWRSESRNSNKDKVFRNDEEFSQQDEIVNGTLTALKNDVEQTTEIIRRKQEQMRMERRQFQTEMEVNGRISIDPTDDWLAARLKAVSSDDMNQQLVKLKQDQRQNAVTDTLAALVYDVNATTEVLRRGQRGRDGEDGNKKKKEEIEYTLRLTPAPEEQIPQRPKIPEDDNMETDDYSRQYGVQMSEETDSLRRRRARSTTPRRTLHISGSPPPPAAAVCAYCSEEIDGAILTALAPNSERAQKFHTYHFMCTYCQKALNMHGTYREHDLKPYCHDCFYKLYNGLQYAPDDHQASIEKLI
binding result: binds
